Laboratory results taken from publication PMC8358021 (2021).

Target: T1, AbApeO-AbApeC heterodimer (ketosynthase-chain length factor complex of the aryl polyene biosynthesis gene … (Acinetobacter baumannii))
T1 chain 1: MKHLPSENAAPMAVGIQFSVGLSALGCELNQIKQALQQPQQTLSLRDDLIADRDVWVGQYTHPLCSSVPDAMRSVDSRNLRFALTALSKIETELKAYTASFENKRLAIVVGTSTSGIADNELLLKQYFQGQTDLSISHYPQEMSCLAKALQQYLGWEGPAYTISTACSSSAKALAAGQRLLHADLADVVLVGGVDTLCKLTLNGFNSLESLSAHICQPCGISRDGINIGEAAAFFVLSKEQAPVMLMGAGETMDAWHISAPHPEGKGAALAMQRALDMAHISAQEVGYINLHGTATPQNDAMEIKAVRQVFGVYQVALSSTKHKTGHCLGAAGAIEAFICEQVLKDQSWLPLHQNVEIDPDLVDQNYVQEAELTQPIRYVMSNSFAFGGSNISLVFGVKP
T1 chain 2: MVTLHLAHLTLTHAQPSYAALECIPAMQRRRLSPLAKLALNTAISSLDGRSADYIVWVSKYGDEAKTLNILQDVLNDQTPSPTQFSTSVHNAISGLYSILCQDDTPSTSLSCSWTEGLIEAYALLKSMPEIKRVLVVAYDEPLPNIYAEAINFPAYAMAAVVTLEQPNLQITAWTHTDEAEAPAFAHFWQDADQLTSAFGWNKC
Assay: ITC

B1: holo ACP2 (ApeF), acyl carrier protein 2 of the A. baumannii APE gene cluster (natural protein)
chain: MSNLADELKQMIIDVLALEDITIADIDTEAPLFGEGLGLDSIDALELGLALKKRYNIHLNAESDETKQHFKSIQSLVALVEAQQKS
modifications: 4'-phosphopantetheine (holo form)
Question: With B1 as the binder, how does the Kd read?
Answer: 42.7 µM
